The test system of one test is type I collagen. Kind of test: ELISA binding of pUR4 to ECM proteins: collagen I. The note with it: plates coated 10 μg/mL, FIG. 7. On the procedure: FIG. 7 is a graph depicting the binding of pUR4 to ECM Proteins. 96-well plates were coated with 10 μg/mL type I collagen (COL), denatured type I collagen (dCOL), fibronectin (FN), laminin (LN), vitronectin (VN), or fibrinogen (FG) at 4° C. overnight. pUR4 was added to the wells and serially diluted. Bound pUR4 was detected as described herein. Measurements were done at 405 nm on a Wallac 1420 multilabel counter. Data represents the average of duplicate determinations, and the error bars the range.
96-well tissue culture plates were coated with 10 μg/mL type I collagen, fibronectin, laminin, fibrinogen, or vitronectin overnight at 4° C. Denatured collagens were generated as described (George et al., “Fibronectins are Essential for Heart and Blood Vessel Morphogenesis but are Dispensable for Initial Specification of Precursor Cells,” Blood 90:3073-3081 (1997), which is hereby incorporated by reference in its entirety). Plates were blocked with 1% bovine serum albumin (BSA) in Tris buffered saline (TBS) for 1 hour, then washed with TBS. pUR4 was serially diluted into coated wells, then incubated at room temperature for 90 min. Wells were washed with TBS containing 0.1% Tween 20. […] After washing, peroxidase activity was quantified by using 2,2′-azino-bis-(3-ethylbenthiazoline-[…]). […]
(In general: ELISA stands for enzyme-linked immunosorbent assay.)

Test [1] has as its system left carotid artery of FVB mice. Kind of test: Carotid ligation model, quantitative immunohistochemistry. The test is classed as in vivo, mouse. Here is the method:
Sections selected from the first millimeter of the carotid artery in each group were used for immunohistochemistry (IHC). Endogenous peroxidase activity was blocked with 3% H2O2, followed by incubation with Dako serum-free blocking solution (Dako; Glostrup, Denmark). The primary antibodies used were: polyclonal anti-fibronectin (Chemicon/Millipore, Billerica, Mass.), polyclonal anti-collagen type I (LF-67; a gift from Dr. Fisher, NIH, Bethesda, Md.), monoclonal anti-proliferating cell nuclear antigen (PCNA) (Sigma, St. Louis, Mo.), polyclonal anti-smooth muscle myosin heavy chain (SMMHC) (Biomedical Technologies Inc., Stoughton, Mass.), monoclonal smooth muscle-actin (SM-actin) (Dako), anti-leukocyte common antigen, CD45 (BD Pharmingen, San Jose, Calif.), monoclonal anti-intercellular adhesion molecule-1 (ICAM-1) (BD Pharmingen), and polyclonal anti-vascular cell adhesion molecule-1 (VCAM-1) (Santa Cruz Biotechnology, Santa Cruz, Calif.). Antigen retrieval for anti-fibronectin and anti-collagen type I antibodies was performed by incubating sections with proteinase K in 0.05M Tris-HCL buffer. Antigen retrieval for CD 45 antibody was performed by incubating sections with 10 mM citrate buffer (pH=6) at 120° C. Sections were then incubated with appropriate biotinylated secondary antibodies followed by avidin-biotin immunoperoxidase system (Vector Laboratories, Burlingame, Calif.). Liquid DAB Substrate Chromogen system (Dako) or Vector Red (Vector) was used for detection. PCNA, CD45, ICAM-1, and VCAM-1-immunostained sections were counterstained with hematoxylin.
Quantitative IHC analysis was performed using Image-Pro Plus software. Data from 3-5 mice were averaged, and the average values ±s.e.m. determined. For fibronectin, collagen type I, SMMHC, and SMα-actin, color digital images were captured using a 40× objective and transformed into gray scale. Sixteen fields of view of equal size per section in the media or adventitia were randomly chosen, and the mean of the optical densities from the sixteen fields of view was determined. Three sections were analyzed per animal. For quantitative comparison of leukocyte infiltration and cell adhesion molecule expression, images were acquired using a 60× objective. The CD45, ICAM-1, and VCAM-1-positive areas were obtained using an automated programmed segmentation procedure in ImagePro. The intima plus media or adventitial regions were traced manually. The percent of the positively stained area to the total traced area was determined. For evaluation of proliferating cells, the percent of PCNA (+) cells to total cells was determined by counting cell numbers in PCNA-stained sections that had been counterstained with hematoxylin. The percent positive cells is reported as the proliferation index. To determine the SMC density, sections were stained with hematoxylin, and cells present in the media were counted. The data is expressed as number of cells/μm^2.
Blood flow in the left carotid artery of 10-week-old FVB/NJ (FVB) mice was reduced by ligating the external and internal carotid arterial branches as described (Korshunov et al., “Flow-Induced Vascular Remodeling in the Mouse: A Model for Carotid Intima-Media Thickening,” Arterioscler. Thromb. Vasc. Biol. 23:2185-2191 (2003), which is hereby incorporated by reference in its entirety). Mice were anesthetized with an intraperitoneal injection of ketamine (80 mg/kg) and xylazine (5 mg/kg) as described in the above-cited referenced. The left common carotid artery was dissected free of the surrounding connective tissue and 50 μL of F-127 pluronic gel (BASF) containing 20 μmol/L pUR4 or III-11C was applied around the carotid artery. […]

In a further test the test system is C57/Bl6 mice. Kind of test: Myocardial infarction by permanent coronary ligation. The test is classed as in vivo, mouse. On the procedure: C57/B16 male mice (12 wks) underwent permanent coronary ligation injury. pUR4 or control peptide (III-11C or del29) was delivered (25 mg/kg/day) in randomized fashion immediately following induction of EKG-verified MI, then once daily via IP injection for 6 days. Serial, investigator-blind echocardiography for 4 weeks was followed by sacrifice; hearts were excised, weighed, and prepared for histological processing. […] FIG. 14B show the % fractional shortening (FS) in control (III-11C, n=8) and pUR4 (n=9) groups.
The therapeutic benefit of pUR4 mediated inhibition of fibronectin polymerization was investigated in a mouse model of myocardial infarction (MI). Male C57/Bl6 mice underwent permanent coronary artery ligation injury, verified at time of surgery by EKG S-T elevation. pUR4 or III-11C were administered via i.p. injection immediately following ligation. Animals subsequently received once daily IP injection for 6 days, and were followed for 4 weeks total. Serial, investigator blind echocardiography assessed cardiac function at baseline, 2 weeks, and 4 weeks.

Setting [2] is: 25 mg/kg/day IP, one week of treatment, up to 4 weeks post-MI.
[3] abbreviates: echocardiography post-MI, p<0.05.

B1: pUR4: 49-mer peptide derived from the bacterial F1 adhesin, His tagged, SEQ ID NO:1; class I fibronectin polymerization inhibitor (peptide)
chain: MRGSHHHHHHGSKDQSPLAGESGETEYITEVYGNQQNPVDIDKKLPNETGFSGNMVETEDTKLN
modifications: His tag; Bacterial adhesin derived peptide pUR4
For B1, the “binding to collagen I” value in the test on type I collagen is on record as “does not bind”. Moreover, the “accumulation of collagen I and fibronectin in the media and adventitia” value in test [1] (7 and 14 days after surgery, vs control animals) is on record as “dramatic reduction”. Moreover, in test [1] (7 days after ligation), the “SMC dedifferentiation (SM α-actin and SM myosin heavy chain staining in the media)” value was “prevented”; the “adhesion molecule expression (ICAM-1 and VCAM-1 levels in the vessel wall)” value is “dramatic decrease”. Moreover, in test [1] (7 days after surgery), the “decrease of leukocyte (CD45) infiltration into the intima, media, and adventitia” value amounted to 80%; the increased fibronectin deposition result is listed as “totally prevented”; the “prevention of increase in cell density in the media” value was 75%. In test [1] (7 days after surgery, ligated 6.7×10^−3, sham 5.0×10^−3), the “cell density in the media” value is on record as 5.3×10^−3 cells/mm^2. Also, in test [1] (7 days post ligation), the “reduction in cell proliferation (PCNA) in the adventitia” value worked out at 61% and the “reduction in cell proliferation (PCNA) in the intima-media” value is 70%. Moreover, the “fibronectin and collagen levels vs control peptide-treated animals” value in test [1] (14 days after surgery) is listed as “still decreased”. In the test with C57/Bl6 mice (setting [2]), the “cardiac function (% fractional shortening)” value was “preserved” and the “cardiac hypertrophy (heart weight to body weight ratio)” value is reported as “reduced”. Further, the “fibronectin deposition within the infarcted area and remote myocardium” value in the test on C57/Bl6 mice (4 weeks post-MI) is “reduced”. In addition, the “collagen and fibronectin deposition post-MI” value in the test on C57/Bl6 mice (FIGS. 15 and 16) is given as “reduced”. Besides, in the test with C57/Bl6 mice (setting [3]), the end systolic diameter was found to be 2.91±0.27 and the end-diastolic diameter stood at 4.12±0.22. In addition, the “cardiac remodeling, infarct size and infarct expansion” value in the test with C57/Bl6 mice (histology 4 weeks post-MI) is given as “reduction”.

Values taken from patent US9364516B2, “Treatment of fibrosis-related disorders using fibronectin binding proteins and polypeptides” (priority 2010, dated 2016).
